Consider one substance from patent publication US20220306759A1.

For experiment [1], the target named is human CD71 (transferrin receptor protein 1, TfR1) on human cell lines (human) (UniProt P02786). Nature of the experiment: FACS on H292 cells; isotype ADC control.
For experiment [2] the target is unchanged. The experiment can be described thus: FACS on H292 cells; isotype ADC control, curve fit with Bmax of only 10.64 MFI.

As usually defined, the Kd is the equilibrium constant for the complex coming apart. Higher therefore signals lower affinity.

Sequence of human CD71 (transferrin receptor protein 1, TfR1) on human cell lines (human) (P02786 whole entry): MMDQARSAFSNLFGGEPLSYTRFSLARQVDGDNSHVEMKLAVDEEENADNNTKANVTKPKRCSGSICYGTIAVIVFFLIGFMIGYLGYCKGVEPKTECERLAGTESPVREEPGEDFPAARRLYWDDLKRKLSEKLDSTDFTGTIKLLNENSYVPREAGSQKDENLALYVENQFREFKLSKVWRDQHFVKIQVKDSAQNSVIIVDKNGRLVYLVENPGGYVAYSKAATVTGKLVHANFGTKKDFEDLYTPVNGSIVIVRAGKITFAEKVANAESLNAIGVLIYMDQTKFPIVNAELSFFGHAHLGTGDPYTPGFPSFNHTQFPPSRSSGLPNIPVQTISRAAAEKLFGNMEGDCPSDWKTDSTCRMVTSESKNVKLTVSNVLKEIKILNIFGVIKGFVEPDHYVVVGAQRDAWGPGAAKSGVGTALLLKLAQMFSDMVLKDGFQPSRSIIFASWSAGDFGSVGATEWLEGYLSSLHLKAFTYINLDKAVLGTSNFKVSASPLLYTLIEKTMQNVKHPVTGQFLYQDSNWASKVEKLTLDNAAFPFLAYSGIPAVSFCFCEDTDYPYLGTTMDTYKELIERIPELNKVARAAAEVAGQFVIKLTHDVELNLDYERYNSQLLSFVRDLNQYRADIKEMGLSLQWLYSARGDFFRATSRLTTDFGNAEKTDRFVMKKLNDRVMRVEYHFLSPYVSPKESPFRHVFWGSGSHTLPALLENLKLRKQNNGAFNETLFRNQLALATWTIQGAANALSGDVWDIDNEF

On to “isotype ADC control (palivizumab-vc-MMAE) (antibody)”, for which the Bmax (MFI) in experiment [1] stood at 10.6 MFI. In experiment [2], the Kd was 57 nM.
